Measured values from publication PMC1762009, “Structure of the yeast histone H3-ASF1 interaction: implications for chaperone mechanism, species-specific interactions, and epigenetics” (BMC Structural Biology, 2006).

Biological target: T1, conserved N-terminus of yeast Asf1 (residues 2–155) (S. cerevisiae, UniProt P32447 2-155)
T1 construct: Asf1 (anti-silencing function 1), budding yeast, residues 2-155; Written as a molecule of its own for the pair; also called Asf1N; ScAsf1; source: E. coli, purified (Ni-chromatography, TEV cleavage, second Ni step, gel filtration); not shown: His6, N-terminal, cleaved; MBP, N-terminal, cleaved
Test: crystal structure; Asf1N fused to H3α3 by the linker AAGAATAA on one chain; hanging-drop vapor diffusion, 18°C, 85 mM Tris-HCl (pH 8.5), 120 mM Li2SO4, 25% PEG 4000, 15% glycerol; 2.2 Å
Conditions: both partners purified

T1 sequence (P32447 2-155): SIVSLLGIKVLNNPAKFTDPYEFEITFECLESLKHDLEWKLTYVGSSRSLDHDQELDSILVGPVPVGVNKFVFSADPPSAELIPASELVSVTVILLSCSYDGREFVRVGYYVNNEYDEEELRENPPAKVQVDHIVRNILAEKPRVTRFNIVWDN

B1: C-terminal α3 helix of yeast histone H3 (residues 121–134) (domain or fragment, S. cerevisiae, UniProt P61830 122-135, looked up)
chain: KKDIKLARRLRGER
notes: histone H3, budding yeast, C-terminal alpha helix, amino acids 121-134; The final model holds H3 residues 121-131 only; also called H3α3; ScH3 121-134; source: E. coli, purified (Ni-chromatography, TEV cleavage, second Ni step, gel filtration), as a fusion behind Asf1N
B1: binds.
